Measurements from paper PMC6487263, “Kinetic and structural analysis of human ALDH9A1” (Bioscience Reports, 2019).

Assays:
Assay in all cases: purified protein
Type in all cases: biochemical, Homo sapiens
Settings in all cases: 1 mM NAD+, 150 mM sodium pyrophosphate pH 7.5, 30 °C
[1] = substrate: C[N+](C)(C)CCCC=O
[2] = substrate: NCCC=O
[3] = substrate: O=CCc1ccc(O)c(O)c1
[4] = substrate: N=C(N)NCCCC=O
[5] = substrate: NCCCC=O

B1: human ALDH9A1 (HsALDH9A1) (Homo sapiens) (protein)
chain: MSTGTFVVSQPLNYRGGARVEPADASGTEKAFEPATGRVIATFTCSGEKEVNLAVQNAKAAFKIWSQKSGMERCRILLEAARIIREREDEIATMECINNGKSIFEARLDIDISWQCLEYYAGLAASMAGEHIQLPGGSFGYTRREPLGVCVGIGAWNYPFQIASWKSAPALACGNAMVFKPSPFTPVSALLLAEIYSEAGVPPGLFNVVQGGAATGQFLCQHPDVAKVSFTGSVPTGMKIMEMSAKGIKPVTLELGGKSPLIIFSDCDMNNAVKGALMANFLTQGQVCCNGTRVFVQKEILDKFTEEVVKQTQRIKIGDPLLEDTRMGPLINRPHLERVLGFVKVAKEQGAKVLCGGDIYVPEDPKLKDGYYMRPCVLTNCRDDMTCVKEEIFGPVMSILSFDTEAEVLERANDTTFGLAAGVFTRDIQRAHRVVAELQAGTCFINNYNVSPVELPFGGYKKSGFGRENGRVTIEYYSQLKTVCVEMGDVESAF
notes: full-length 494-residue protein, His-tag kept (pCDFDuet, BamHI/XhoI), recombinant from E. coli; silent polymorphism at Ile110 codon
B1 was tested. Which Km [1] did it give?
Its Km is 6 ± 1 µM.

What about the Vmax [1] of the same protein?
Its Vmax is 0.588 µmol/min/mg.

What about the Km [2] of the same protein?
Its Km is 56 ± 7 µM.

And the Vmax [2]?
The Vmax was 0.108 µmol/min/mg.

What about the Km [3] of the same protein?
Its Km is 11 ± 1 µM.

And the Vmax [3]?
Its Vmax is 0.03 µmol/min/mg.

What about the Km [4] of the same protein?
The Km was 21 ± 2 µM.

What about the Vmax [4] of the same protein?
Its Vmax is 0.114 µmol/min/mg.

What about the Km [5] of the same protein?
Its Km is 67 ± 7 µM.

What about the Vmax [5] of the same protein?
Its Vmax is 0.108 µmol/min/mg.
